Measurements: IntAct's records for PubMed 35512704

B1: Speckle-type POZ protein (Homo sapiens), O43791 (parent)
chain: MSRVPSPPPPAEMSSGPVAESWCYTQIKVVKFSYMWTINNFSFCREEMGEVIKSSTFSSGANDKLKWCLRVNPKGLDEESKDYLSLYLLLVSCPKSEVRAKFKFSILNAKGEETKAMESQRAYRFVQGKDWGFKKFIRRDFLLDEANGLLPDDKLTLFCEVSVVQDSVNISGQNTMNMVKVPECRLADELGGLWENSRFTDCCLCVAGQEFQAHKAILAARSPVFSAMFEHEMEESKKNRVEINDVEPEVFKEMMCFIYTGKAPNLDKMADDLLAAADKYALERLKVMCEDALCSNLSVENAAEILILADLHSADQLKTQAVDFINYHASDVLETSGWKSMVVSHPHLVAEAYRSLASAQCPFLGPPRKRLKQS
partner: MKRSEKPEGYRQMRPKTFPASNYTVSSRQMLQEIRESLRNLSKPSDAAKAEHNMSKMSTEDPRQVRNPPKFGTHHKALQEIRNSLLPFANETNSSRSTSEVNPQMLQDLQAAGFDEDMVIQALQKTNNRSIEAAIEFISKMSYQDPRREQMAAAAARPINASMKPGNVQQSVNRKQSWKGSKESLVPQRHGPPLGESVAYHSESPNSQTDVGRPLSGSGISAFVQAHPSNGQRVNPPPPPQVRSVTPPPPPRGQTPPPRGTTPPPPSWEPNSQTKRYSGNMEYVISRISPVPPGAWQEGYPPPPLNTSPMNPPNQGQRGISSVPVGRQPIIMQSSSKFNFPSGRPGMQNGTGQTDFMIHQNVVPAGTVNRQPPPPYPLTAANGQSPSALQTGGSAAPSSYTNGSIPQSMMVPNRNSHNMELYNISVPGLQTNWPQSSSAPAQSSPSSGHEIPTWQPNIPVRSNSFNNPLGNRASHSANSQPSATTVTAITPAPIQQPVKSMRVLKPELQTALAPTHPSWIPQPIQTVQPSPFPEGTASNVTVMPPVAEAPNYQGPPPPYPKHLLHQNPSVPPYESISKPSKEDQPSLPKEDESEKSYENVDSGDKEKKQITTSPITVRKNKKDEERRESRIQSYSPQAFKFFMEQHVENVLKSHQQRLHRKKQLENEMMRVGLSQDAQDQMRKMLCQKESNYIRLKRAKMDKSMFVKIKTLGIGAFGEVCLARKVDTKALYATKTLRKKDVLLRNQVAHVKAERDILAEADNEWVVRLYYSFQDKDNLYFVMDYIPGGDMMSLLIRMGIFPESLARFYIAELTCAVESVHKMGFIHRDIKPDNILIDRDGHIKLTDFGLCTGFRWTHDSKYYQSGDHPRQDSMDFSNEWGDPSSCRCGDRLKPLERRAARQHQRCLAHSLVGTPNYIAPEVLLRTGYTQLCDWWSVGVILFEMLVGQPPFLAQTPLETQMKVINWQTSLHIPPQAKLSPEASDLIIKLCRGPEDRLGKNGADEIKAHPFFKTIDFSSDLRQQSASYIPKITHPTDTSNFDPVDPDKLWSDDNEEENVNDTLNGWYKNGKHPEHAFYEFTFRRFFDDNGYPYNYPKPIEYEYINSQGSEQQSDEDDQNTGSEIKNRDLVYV
B2: Speckle-type POZ protein (Homo sapiens), O43791 (parent)
chain: B1 chain
partner: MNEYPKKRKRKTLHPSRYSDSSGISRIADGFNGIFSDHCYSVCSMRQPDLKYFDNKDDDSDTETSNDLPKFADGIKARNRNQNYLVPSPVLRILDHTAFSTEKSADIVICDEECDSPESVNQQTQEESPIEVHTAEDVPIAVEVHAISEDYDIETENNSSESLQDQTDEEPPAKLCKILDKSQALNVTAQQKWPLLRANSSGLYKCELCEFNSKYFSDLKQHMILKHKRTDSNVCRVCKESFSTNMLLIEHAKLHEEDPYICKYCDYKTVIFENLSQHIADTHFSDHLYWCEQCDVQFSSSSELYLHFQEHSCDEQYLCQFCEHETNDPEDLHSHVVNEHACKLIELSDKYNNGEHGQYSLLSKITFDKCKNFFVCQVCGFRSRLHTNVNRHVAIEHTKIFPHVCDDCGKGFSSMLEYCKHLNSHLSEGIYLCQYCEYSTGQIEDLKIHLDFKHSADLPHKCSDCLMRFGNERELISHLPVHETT
B3: Speckle-type POZ protein (Homo sapiens), O43791 (parent)
chain: B1 chain
partner: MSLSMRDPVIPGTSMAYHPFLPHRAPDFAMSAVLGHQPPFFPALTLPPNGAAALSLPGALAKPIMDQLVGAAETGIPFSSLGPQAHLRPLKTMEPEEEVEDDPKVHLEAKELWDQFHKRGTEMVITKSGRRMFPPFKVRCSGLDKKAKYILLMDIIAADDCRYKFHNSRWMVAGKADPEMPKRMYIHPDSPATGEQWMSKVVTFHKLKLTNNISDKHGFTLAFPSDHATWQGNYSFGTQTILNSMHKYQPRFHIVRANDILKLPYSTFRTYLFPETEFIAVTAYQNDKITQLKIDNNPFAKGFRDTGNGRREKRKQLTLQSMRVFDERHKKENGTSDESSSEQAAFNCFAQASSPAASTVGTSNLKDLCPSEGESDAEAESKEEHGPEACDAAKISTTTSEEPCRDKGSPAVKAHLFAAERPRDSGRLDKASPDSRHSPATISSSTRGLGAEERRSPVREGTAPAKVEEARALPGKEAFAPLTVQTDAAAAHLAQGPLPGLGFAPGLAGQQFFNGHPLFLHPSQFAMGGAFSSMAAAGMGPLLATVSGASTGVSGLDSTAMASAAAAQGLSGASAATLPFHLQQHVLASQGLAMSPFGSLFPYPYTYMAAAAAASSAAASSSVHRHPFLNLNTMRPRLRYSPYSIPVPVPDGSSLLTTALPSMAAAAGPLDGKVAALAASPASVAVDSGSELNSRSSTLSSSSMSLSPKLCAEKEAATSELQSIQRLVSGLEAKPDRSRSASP

Variants of: B1
Conditions: with lats1_human LATS1, O95835

Row | Variant | effect of a mutation on the interaction
1 | F133V | with no effect

Variants of: B1
Conditions: with lats1_human LATS1, O95835
Remark: another data set of the same source

Row | Variant | effect of a mutation on the interaction
2 | F133L | with no effect

Variants of: B1
Conditions: with lats1_human LATS1, O95835
Remark: another data set of the same source

Row | Variant | effect of a mutation on the interaction
3 | Y87C | with no effect

Variants of: B2
Conditions: with zn639_human ZNF639, Q9UID6

Row | Variant | effect of a mutation on the interaction
4 | F102C | with no effect

Variants of: B2
Conditions: with zn639_human ZNF639, Q9UID6
Remark: another data set of the same source

Row | Variant | effect of a mutation on the interaction
5 | F133V | with no effect

Variants of: B2
Conditions: with zn639_human ZNF639, Q9UID6
Remark: another data set of the same source

Row | Variant | effect of a mutation on the interaction
6 | F133L | with no effect

Variants of: B3
Conditions: with tbx3_human TBX3, O15119

Row | Variant | effect of a mutation on the interaction
7 | F133L | with no effect

Variants of: B3
Conditions: with tbx3_human TBX3, O15119
Remark: another data set of the same source

Row | Variant | effect of a mutation on the interaction
8 | F133V | with no effect
